The text below walks through data of patent publication US20080248467, “System for pulling out regulatory elements using yeast” (published 2008).

The target in this data set is Pax3 (GST fusion or 6xHis) (UniProt P24610 P24610:1-479). The experiment in a line: EMSA; 25 C. Conditions: tags: GST-Pax3 or 6xHis-Pax3, bacterially expressed; label: 32P; overhangs. As for the experimental part: Probes were generated by end-labeling double-stranded oligonucleotides with γ³² P-dATP or PCR labeling with α³²P-dGTP. Probes were incubated with or without 6×-His-Pax3 or GST-PAX3 at 25° C., and the complexes were resolved on a 6% Tris-glycine polyacrylamide gel. The free probes are designated by the bottom bracket, and the shifted Pax3:DNA complex by the asterisk to the right of each gel.
Probes were generated by end labeling double-stranded oligonucleotides with γ³²P-dATP or PCR labeling with α³²P-dGTP. Probes were incubated with or without 6×-His-Pax3 or GST-PAX3 at 25° C., and the complexes were resolved on a 6% Tris-glycine polyacrylamide gel. The location of the free probes is indicated by the bracket at left, and the shifted Pax3:DNA complexes by the asterisks to the right of each gel.
Background: A gel shift assay detects complexes by their altered migration in electrophoresis.

Sequence of Pax3 (GST fusion or 6xHis) (P24610 whole entry, the tested form may be a part, one chain of several): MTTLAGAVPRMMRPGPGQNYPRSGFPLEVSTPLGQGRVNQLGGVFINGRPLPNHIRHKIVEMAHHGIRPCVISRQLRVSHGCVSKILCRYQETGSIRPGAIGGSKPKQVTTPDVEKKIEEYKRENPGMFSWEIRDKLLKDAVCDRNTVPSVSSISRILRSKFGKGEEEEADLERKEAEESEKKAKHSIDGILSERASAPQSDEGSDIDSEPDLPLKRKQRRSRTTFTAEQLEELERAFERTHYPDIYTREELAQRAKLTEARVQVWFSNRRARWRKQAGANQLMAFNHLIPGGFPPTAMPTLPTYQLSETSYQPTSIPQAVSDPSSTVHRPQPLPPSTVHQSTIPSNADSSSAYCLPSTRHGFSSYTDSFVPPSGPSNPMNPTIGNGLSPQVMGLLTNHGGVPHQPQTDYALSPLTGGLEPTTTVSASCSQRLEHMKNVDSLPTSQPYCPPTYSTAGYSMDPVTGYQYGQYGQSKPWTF

B1: 2x Pax3 oligo (dsDNA)
DNA 1: CAGTGACGATTAGCACCGTCACGCTTAGATATAGTGACGATTAGCACCGTCACGCTTAGATATA
DNA 2: CGCGTATATCTAAGCGTGACGGTGCTAATCGTCACTATATCTAAGAGTGACGGTGCTAATCGTCACTGAGCT
B1: the binding result is “binds”.
